The chains are these.
T1: recombinant cynomolgus NKG2D-Fc fusion protein (cynomolgus; human, UniProt P61252 73-216)
T1 construct: extracellular domain; not shown: human IgG1 Fc domain
T1 sequence (looked up): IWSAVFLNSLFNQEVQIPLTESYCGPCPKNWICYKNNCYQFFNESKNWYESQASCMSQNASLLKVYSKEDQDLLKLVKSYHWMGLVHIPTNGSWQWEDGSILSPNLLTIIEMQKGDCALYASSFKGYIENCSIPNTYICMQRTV

B1: ADI-27727 (antibody, V domains shown)
VH: QVQLVQSGAEVKKPGSSVKVSCKASGGTFSSYAISWVRQAPGQGLEWMGGIIPIFGTANYAQKFQGRVTITADESTSTAYMELSSLRSEDTAVYYCARGDSSIRHAYYYYGMDVWGQGTTVTVSS
VL: not shown
B2: ADI-29378 (antibody, V domains shown)
VH: QVQLVQSGAEVKKPGASVKVSCKASGYTFTSYYMHWVRQAPGQGLEWMGIINPSGGSTSYAQKFQGRVTMTRDTSTSTVYMELSSLRSEDTAVYYCAREGAGFAYGMDYYYMDVWGKGTTVTVSS
VL: EIVLTQSPATLSLSPGERATLSCRASQSVSSYLAWYQQKPGQAPRLLIYDASNRATGIPARFSGSGSGTDFTLTISSLEPEDFAVYYCQQSDNWPFTFGGGTKVEIK
notes: also called E78
B3: ADI-27749 (antibody, V domains shown)
VH: EVQLVESGGGLVKPGGSLRLSCAASGFTFSSYSMNWVRQAPGKGLEWVSSISSSSSYIYYADSVKGRFTISRDNAKNSLYLQMNSLRAEDTAVYYCARGAPMGAAAGWFDPWGQGTLVTVSS
VL: DIQMTQSPSSVSASVGDRVTITCRASQGISSWLAWYQQKPGKAPKLLIYAASSLQSGVPSRFSGSGSGTDFTLTISSLQPEDFATYYCQQGVSFPRTFGGGTKVEIK
notes: also called A49
B4: ADI-29403 (antibody, V domains shown)
VH: QVQLQQWGAGLLKPSETLSLTCAVYGGSFSGYYWSWIRQPPGKGLEWIGEIDHSGSTNYNPSLKSRVTISVDTSKNQFSLKLSSVTAADTAVYYCARARGPWSFDPWGQGTLVTVSS
VL: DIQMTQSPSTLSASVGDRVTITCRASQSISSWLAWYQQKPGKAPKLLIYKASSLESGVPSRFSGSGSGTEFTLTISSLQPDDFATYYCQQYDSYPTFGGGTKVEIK
B5: ADI-27705 (antibody, V domains shown)
VH: B4 VH
VL: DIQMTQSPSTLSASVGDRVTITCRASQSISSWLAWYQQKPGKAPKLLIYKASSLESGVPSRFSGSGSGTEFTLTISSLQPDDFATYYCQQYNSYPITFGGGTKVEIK
B6: ADI-29447 (antibody, V domains shown)
VH: B4 VH
VL: DIQMTQSPSTLSASVGDRVTITCRASQSISSWLAWYQQKPGKAPKLLIYKASSLESGVPSRFSGSGSGTEFTLTISSLQPDDFATYYCQQYDTFITFGGGTKVEIK
notes: also called F47
B7: ADI-28226 (antibody, V domains shown)
VH: B4 VH
VL: B3 VL with S10T, V11L, G28S, A50K, Q55E, D70E, E81D, G91Y, V92G, R96I
notes: also called C26
B8: ADI-27743 (antibody, V domains shown)
VH: B4 VH
VL: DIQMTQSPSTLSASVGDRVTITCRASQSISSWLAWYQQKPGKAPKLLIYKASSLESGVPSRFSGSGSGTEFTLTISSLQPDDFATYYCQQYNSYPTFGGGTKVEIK
B9: ADI-29399 (antibody, V domains shown)
VH: B4 VH
VL: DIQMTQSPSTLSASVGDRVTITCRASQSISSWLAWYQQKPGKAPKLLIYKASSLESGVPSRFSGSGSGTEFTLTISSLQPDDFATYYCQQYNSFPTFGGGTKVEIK
B10: ADI-29426 (antibody, V domains shown)
VH: B4 VH
VL: B6 VL with S30G, D92H, T93S, I95P
B11: ADI-27740 (antibody, V domains shown)
VH: B4 VH
VL: B6 VL with S30G, D92H, T93S, I95Y
notes: also called A40
B12: ADI-29404 (antibody, V domains shown)
VH: B4 VH
VL: B6 VL with Q89E, T93S, F94Y, I95P
notes: also called F04
B13: ADI-27741 (antibody, V domains shown)
VH: B4 VH
VL: B6 VL with S30G, Y91S, D92N, T93S, F94Y, I95Y
B14: ADI-29401 (antibody, V domains shown)
VH: B4 VH
VL: B6 VL with S30G, T93I, F94Y, I95P
B15: ADI-29421 (antibody, V domains shown)
VH: B4 VH
VL: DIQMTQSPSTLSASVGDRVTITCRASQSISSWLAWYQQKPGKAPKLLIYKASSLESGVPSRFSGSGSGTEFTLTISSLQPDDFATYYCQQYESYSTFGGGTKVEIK
B16: ADI-29425 (antibody, V domains shown)
VH: B4 VH
VL: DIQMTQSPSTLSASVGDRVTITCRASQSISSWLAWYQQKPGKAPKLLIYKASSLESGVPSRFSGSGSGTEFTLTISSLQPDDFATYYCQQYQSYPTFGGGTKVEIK
B17: ADI-29429 (antibody, V domains shown)
VH: B4 VH
VL: DIQMTQSPSTLSASVGDRVTITCRASQSIGSWLAWYQQKPGKAPKLLIYKASSLESGVPSRFSGSGSGTEFTLTISSLQPDDFATYYCQQYELYSYTFGGGTKVEIK
B18: ADI-29419 (antibody, V domains shown)
VH: B4 VH
VL: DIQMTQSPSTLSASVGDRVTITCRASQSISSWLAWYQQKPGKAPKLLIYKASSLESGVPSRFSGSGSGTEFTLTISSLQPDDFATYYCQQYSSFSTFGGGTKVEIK
B19: ADI-29405 (antibody, V domains shown)
VH: B4 VH
VL: B6 VL with D92G, T93S, I95P
B20: ADI-29407 (antibody, V domains shown)
VH: B4 VH
VL: B6 VL with D92Q, T93S, I95P
B21: ADI-29424 (antibody, V domains shown)
VH: B4 VH
VL: B6 VL with T93S

Positions count from the first letter of the chain named.

The target of the assay is T1, recombinant cynomolgus NKG2D-Fc fusion …. The experiment in a line: ELISA on coated NKG2D-Fc. Background: ELISA stands for enzyme-linked immunosorbent assay.
For B1, the binding result is given as “binds”.
To B2 belongs “binds”.
Regarding B3, the binding result is “binds”.
The result for B4 reads “binds”; that for B5, “binds”; that for B6, “binds”.
To B7 belongs “binds”.
To B8 belongs “binds”; to B9, “binds”; to B10, “binds”.
Regarding B11, the binding result is “binds”.
To B12 belongs “binds”.
The result for B13 reads “binds”; that for B14, “binds”.
B15: the binding result was “binds”.
To B16 belongs “binds”; to B17, “binds”; to B18, “binds”.
To B19 belongs “binds”.
In the case of B20, the binding result is given as “binds”.
To B21 belongs “binds”.
